Measured values published in US20240352102A1.
“And” between values parts separate entries of the source, which are not always exact repeats. Identical values can stand only once.

Tests used:
Assay in all cases: peptide microarray
[1] = molecular target: T1, Peptide_051
T1 sequence (peptide): RTPPKSPSSAKSRLQ

[2] = molecular target: T2, Peptide_059
T2 sequence (peptide): STENLKHQPGGGKVQ

[3] = molecular target: T3, Peptide_060
T3 sequence (peptide): LKHQPGGGKVQIINK

[4] = molecular target: T4, Peptide_061
T4 sequence (peptide): PGGGKVQIINKKLDL

B1: mAb TRC35 (antibody, V domains shown)
VH: QVQLQQPGTELVKPGASVKLSCKASGYTFTSYWLQWVKQRPGQGLEWIGEIDPSDSYTNYNQKFKGKATLTVDTSSSTAYMQLSSLTSEDSAVYYCATLTGSWGQGTTLAVSS
VL: DVLLTQTPLSLPVSLGDQASISCRASQSIVDSNGNTFLEWYLQKSGQSPKVLIYKVSNRFSGVPDRFSGRGSGTDFTLKISRVEAEDLGVYYCFQGSHVPYTFGGGTKLEIK
fluorescence intensity [1]: 151 and 83.3
fluorescence intensity [2]: 204 and 126
fluorescence intensity [3]: 793 and 655
fluorescence intensity [4]: 157 and 114
